Assay results reported in PMC7830388.

Columns and labels:
[1] = biological target: T1, CopRΔTRASH internal_change (Pyrococcus furiosus) (UniProt Q8U2U0); test: EMSA; details: EMSA: 20 nM DNA, 40 mM HEPES pH 7.4, 80 mM (NH4)2SO4, 670 uM DTT, 20 ug/ml BSA, 6.7% glycerol, 50 ng HindIII-digested lambda DNA, 5 min 70 C; DNase I: 4.4 nM …
T1 sequence: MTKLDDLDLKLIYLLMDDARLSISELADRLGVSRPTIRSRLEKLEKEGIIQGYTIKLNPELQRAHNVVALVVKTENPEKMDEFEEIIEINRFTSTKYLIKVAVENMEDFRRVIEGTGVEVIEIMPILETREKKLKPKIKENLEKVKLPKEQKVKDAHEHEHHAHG

[2] = biological target: T2, CopRΔHISΔTRASH (Pyrococcus furiosus) (UniProt Q8U2U0); test: EMSA; details: EMSA: 20 nM DNA, 40 mM HEPES pH 7.4, 80 mM (NH4)2SO4, 670 uM DTT, 20 ug/ml BSA, 6.7% glycerol, 50 ng HindIII-digested lambda DNA, 5 min 70 C; DNase I: 4.4 nM …
T2 sequence: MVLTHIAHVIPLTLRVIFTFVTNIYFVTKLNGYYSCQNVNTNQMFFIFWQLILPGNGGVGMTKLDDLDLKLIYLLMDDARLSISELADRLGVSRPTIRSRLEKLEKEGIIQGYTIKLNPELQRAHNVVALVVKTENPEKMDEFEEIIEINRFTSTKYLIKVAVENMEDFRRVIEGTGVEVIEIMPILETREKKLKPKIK

[3] = biological target: T3, CopR (Pyrococcus furiosus) (UniProt Q8U2U0); test: EMSA; details: EMSA: 20 nM DNA, 40 mM HEPES pH 7.4, 80 mM (NH4)2SO4, 670 uM DTT, 20 ug/ml BSA, 6.7% glycerol, 50 ng HindIII-digested lambda DNA, 5 min 70 C; DNase I: 4.4 nM …
T3 sequence: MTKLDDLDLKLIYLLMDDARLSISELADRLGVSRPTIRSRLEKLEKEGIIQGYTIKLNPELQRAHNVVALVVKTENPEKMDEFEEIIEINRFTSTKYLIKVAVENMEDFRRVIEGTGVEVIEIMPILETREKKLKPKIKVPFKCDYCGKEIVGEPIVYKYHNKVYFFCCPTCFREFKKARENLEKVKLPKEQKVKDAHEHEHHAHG

[4] = biological target: T4, CopRΔHIS (Pyrococcus furiosus) (UniProt Q8U2U0); test: EMSA; details: EMSA: 20 nM DNA, 40 mM HEPES pH 7.4, 80 mM (NH4)2SO4, 670 uM DTT, 20 ug/ml BSA, 6.7% glycerol, 50 ng HindIII-digested lambda DNA, 5 min 70 C; DNase I: 4.4 nM …
T4 sequence: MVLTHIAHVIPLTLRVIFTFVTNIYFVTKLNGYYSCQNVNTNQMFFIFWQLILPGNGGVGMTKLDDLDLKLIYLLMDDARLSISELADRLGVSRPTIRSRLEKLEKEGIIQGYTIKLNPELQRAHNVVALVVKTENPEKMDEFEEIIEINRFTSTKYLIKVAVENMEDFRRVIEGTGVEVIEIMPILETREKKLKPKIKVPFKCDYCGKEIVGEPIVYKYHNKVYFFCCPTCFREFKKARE

[5] = biological target: T3, CopR (Pyrococcus furiosus); test: DNase I footprinting; details: EMSA: 20 nM DNA, 40 mM HEPES pH 7.4, 80 mM (NH4)2SO4, 670 uM DTT, 20 ug/ml BSA, 6.7% glycerol, 50 ng HindIII-digested lambda DNA, 5 min 70 C; DNase I: 4.4 nM …
[6] = biological target: T5, TBP;TFB (Pyrococcus furiosus?;Pyrococcus furiosus?) (UniProt P62000+P61998); test: DNase I footprinting; details: EMSA: 20 nM DNA, 40 mM HEPES pH 7.4, 80 mM (NH4)2SO4, 670 uM DTT, 20 ug/ml BSA, 6.7% glycerol, 50 ng HindIII-digested lambda DNA, 5 min 70 C; DNase I: 4.4 nM …
T5 sequence 1: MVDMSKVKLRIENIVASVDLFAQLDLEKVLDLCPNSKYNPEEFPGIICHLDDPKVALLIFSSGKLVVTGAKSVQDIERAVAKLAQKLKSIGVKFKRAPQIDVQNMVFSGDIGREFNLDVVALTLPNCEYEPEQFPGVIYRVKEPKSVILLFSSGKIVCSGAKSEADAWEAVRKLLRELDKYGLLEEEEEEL
T5 sequence 2: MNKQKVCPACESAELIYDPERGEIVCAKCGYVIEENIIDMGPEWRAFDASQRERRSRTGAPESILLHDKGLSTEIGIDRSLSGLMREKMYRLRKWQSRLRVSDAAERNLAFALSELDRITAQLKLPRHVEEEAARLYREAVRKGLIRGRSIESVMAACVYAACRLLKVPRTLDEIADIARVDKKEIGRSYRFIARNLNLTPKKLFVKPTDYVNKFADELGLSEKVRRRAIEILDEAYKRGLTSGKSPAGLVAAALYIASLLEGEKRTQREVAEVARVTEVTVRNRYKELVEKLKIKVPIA

[7] = biological target: CopRΔTRASH (PF0739 variant lacking the metal-sensing TRASH domain) (Pyrococcus furiosus); test: negative-stain transmission electron microscopy with 2D class averaging; 220 ng/μl protein, 2% uranyl acetate with 0.005% DDM; more than 50,000 particles classified in RELION 3.0; in the absence and presence of a DNA template
[8] = biological target: CopR (PF0739), copper-sensing transcriptional regulator of Pyrococcus furiosus (Pyrococcus furiosus); test: SEC; Superdex 200 10/300 GL in low salt buffer (40 mM HEPES pH 7.5, 80 mM ammonium sulfate, 1 mM EDTA, 10% glycerol); elution compared to standard calibration proteins

## GAGTGATCTTCACTTTCGTCACCAATATTTACTTTGTGACGAAACTTAATGGGTATTATTCATGCCAAAATGTAAACACTAACCAAATGTTTTTTATATTTTGGCAACTAATACTCCCAGGGAATGGGGGTGTTGGAATGACCAAGTTAGATG (double strand) [copR/copA intergenic promoter region (EMSA)]
[1]
  binding: binds
[2]
  binding: binds
[3]
  binding: binds
[4]
  binding: binds

## GAGTGATCTTCACTTTCGTCACCAATATTTACTTTGTGACGAAACTTAATGGGTATTATTCATGCCAAAATGTAAACACTAACCAAATGTTTTTTATATTTTGGCAACTAATACTCCCAGGGAATGGGGGTGTTGGAATGACCAAGTTAGATG (double strand) [copR/copA promoter region (DNase I footprint)]
[5]
  binding: binds
[6]
  binding: binds

## CopRΔTRASH (PF0739 variant lacking the metal-sensing TRASH domain) (natural protein)
[7]
  stoichiometry N: 8

## CopR (PF0739), copper-sensing transcriptional regulator of Pyrococcus furiosus (natural protein)
[8]
  stoichiometry N: 8
